Source: the NTF2 design screens of Basanta et al. (2020)

Assay: protease stability score; higher = more stable; yeast display proteolysis, trypsin and chymotrypsin;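 further: relative to predicted unfolded state with 0 unfolded-like and 1 meaning tenfold more protease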

| Sequence | protease stability score |
| --- | --- |
| SEEEKEAHDWMEVWLELFHTGDEDMLEHMADPHTRIHVDGRKFHGRENYVRLVRHMRVHHFIERRVRIINGRIHIEGEARVNINGQEIDNHVQIHLNLVDGRLKTEHIKVK | 0.927 |
| SEEEKEAKDALEKLWHYWHTGDEHELVRLADPTMRHIINGRHFHGREFFSELLRRLGFKHIIYHFEDMDVQGDKVHIHGHIESEFDGRRHHMNTHLIILKVNGKWIYESIKFD | 1.32 |
| SEEEKEAQHLLELENDARRTGDEDFSREMVDPNVKIDINGRDLHGWDVAEELMRQADHVHHEHIRQVEVQGDKLIVDMEINGHINGKSFDIKIHLFIWKYNGKWFVRKIDVK | 1.44 |
| SEEEKEARESIHRFEAALKTGNEESLFELLDPHVRIDVNGQELHGWKEWKHIVHENKKRVKGARFRIHHIEIINGRIHLDGEVSINGKDIRTEYIIEKIDGVWRLTEVIIR | 1.28 |
| SEEEKEARRILTHFREVLHTGDEHALLELMDPNVRFILHDENHTVENHGMENMVTSLRKFGFDVIKRVHDKEHHLQGDKIKFHVETLGEINGREFEVEVQIRLYVVDGVLKWSEIIIH | 1.1 |
| SEEEKEDWEWMEIFYDALHTGDEKLIRDNADPNVKFRQGDYHSVGREEYIRKIDELRRRLGITKIRLEIDHVEVINGRSNVDTTIHVNGREIRSTLHVQVVNGRIKEIEIHLR | 1.04 |
| SEEEKEIKEILERLIRSLLTGDEQELAKMADPNVRFNFQVGNKKYTLHGREHLRRHITFVFEYLGFDHITIQDSHYQGDKMTVHVELRVNGRRHEIREHWLVVDGRIKEVHVEIH | 2.32 |
| SEEEKELEEALKIQEEFWRTGDEHSLRELADPHARVHIDGRDLHGREFWSMLSNQLRIEHIEVKSVELVDGRLEADVHVTGRYNGRDVKTRMRLEIVKINGVWYLESTEIN | 0.407 |
| SEEEKELKTLVEELWHAWETGDEDFIHKYMDPHARLHIGDKDHHGREEIRESLRQHREHLRIEHVHRHHVKLVDGRIETHGHILGHIGDKRFETEMIIIIIVINGRIRSMKFDYR | 1.03 |
| SEEEKELREIMKVFKDAFLTGNEDLLRQLMDPHVRFHIGDKKNHGWEALHEYLLRIDHLDDLHSHLTEVHIQGDKVKIDGHLHMVERYGDFRFEREIRVHIVIEKINGRWIIEEVHFI | 1.35 |
| SEEEKELRFVYDLLWHLLKTGDEEITRELADPRVRIDIDGKEWHGRDELARLFDRLHRELGYTVHRTRHHRHDFINGQWHEDGETKGVIGDKEFETHVKIIIIVINGRLKEVIFHYH | 1.16 |
| SEEEKEMEDFLREFEKNLRTGDEEQIRRLADPHVRMEVNGVEHIGRKHVSRFWYHLVRRADHIHIEVEDMHLVGEKMELIGILRLRVNGRDLTHHHRLIVDKIDGRWFLRESRIH | 1.73 |
| SEEEKEMHHIARLFFELWLTGDEETHQRLLDPDAKHSFNGVILHGRDEMIRYWRQFLEEIRLRSIEIRRITSVGDKVHVDSHVDGEVNGRRIVTREYIELEVVDGRWKRVKLHIK | 1.38 |
| SEEEKESEDSMRILEHYFHTGNEESLLKLADPHVRSEINGKIHHGMDLHNEIWKHFVQQFKGARPTSLNFKDVEIQGNKAEFHIELVLTIGNYSIHLEMHIFNEKVDGRWLIRSTYIR | 1.08 |
| SEEEKETEHVLRLFLEIFHTGDWKTLHELFDPHVRLNVGDKHWIGRENVVEQIRHFLERFKNARFHIHRIHIVGDFNDVRTEITINGRTHDTRLWLQVIDGRIESMEIKMN | 2.44 |
| SEEEKETRKNLHEFLESIITGDEDHLVNMMDPHARIEVGDWELVGRHKFHEFASKVKNLKLHIRNTEVYGDKVHIDSEINFNGQRRDMVVHAEKINGKWILKHTRYQ | 1.17 |
| SEEEKEVKEHLKIIHDVIRTGNEHDIKELMDPNMLLVFNGQKHIGRDHWEELLKKLGADHVHLHIRSFTIINGQARLETEVEWRAENRTIRRETEIVTDKINGRWIIHTIIFR | 1.5 |
| SEEEKEVQEYLERSIKDIRTGDEDELRRQLDPNYKLDVNGQKHIGMELWLKILSREVKEIRIDHVERHIEVINGRIDVKGELILNFNGREFRHHFEIHATKFNGRWVVDSMRVE | 1.15 |
| SEEEKEYEHWMRLYLHWRLTGDEEAEKRNADPNTRVEFNGKELHGMEVVSEFIIKLRNEMRFEFLEIDDMRVIDGVSHFDVTVDGVIDGKRVRLTLHIILIVINGKIHHIQEEWK | 1.43 |
| SEEEKFAERFIRLFMEALETGDERVLEELLDPNVRVEVNGREYHGRDVFTRLVREWRIDHLDTHTHRIDSQGDKVNADTRVRFHHKVGDKVHDTEMHVILHSEKFNGRWHMTEIIIR | 1.34 |
| SEEEKHAHEMVRIFLHILKTGDWRTLEKLLDPDVRMSLDINGREHHQVGREEVLKAFIRFLDEWRMDDLHLHDVTIQGDKAYLETEVHITFNGQRHHTHLEIEIYVINGKIKSIRLTIR | 2.36 |
| SEEEKHFEDALERWIRTTDTGDETKLIELMDPHVKVDINGQEFHGWKIVFRFMHHLIRRIDHIIIEVKHLRVYDGRVELDGIIRVRFDGRQMEYNSRFIALKFNGVWLLHSMHFH | 1.87 |
| SEEEKHIIELFEIWLEAIRTGDENLLLKLADPHYRVIIDVGNKHIHRHGWKEFMEWLRHFTREMRIRHLTLRDYRAVNGVFHADTESVEEIGEFELRTRMHIVLVIINGVFHSVRHKIE | 1.23 |
| SEEEKHLEHMARMMVEALMTGDEKLLNHLLDPNVRVEHSINGVEITDHGWHLYVKWVRDLGIDHIYFKDMHHQGNKTHLNIEIEINGKHIETRLLLVIVNGRIHIIKHEIK | 2.08 |
| SEEEKHLRELSEHFIKLFLTGNEEELVNNADPHVQLHIDINGKKYHYHGREEFRKWAEERSEKIKNAKIILDHVEIQGEKLIIDTTWHFDGRNFRSKIKIKVFDGVLKEIHIEIR | 2.1 |

| Sequence | protease stability score |
| --- | --- |
| SEEEKHMHKMHELRNKRTKTGDEHWFEKLADPHYRVEIGDKELIGWEYLVRVRREFGIDHLETVHIDSTEIQGEKVIEHVTIHGEFDGVRNDLKVELIVIKFNGRWVMHSTKVK | 0.761 |
| SEEEKHSHKAVEIITELLKTGDWHEILKNADPTTKSDFNGVELHGWEALQSILKFMGIDHVELKSIDVFNGRLTVHRNMHINGREHHLIIIALKVNGKWVLESMEVH | 1.84 |
| SEEEKHTREMSEMLLRTWETGDEEEYEHLADPHVRIDFNGKHYHGREEAVKLLRWLIEELGADHRTIHREEVQGEKVRLFTRVNVNGRDLRLIIRFVVINGRLTIMKIEIHTE | 1.26 |
| SEEEKHVHRFLSEWTRSLKTGDEQRIVRLLDPTARLFFEGREYHGMETIAHQIVHDIRHHGFTLEVEIQDFHVQGDKAEHDGILIVKVDGKEIHRKLILVVTKIDGRWFLSEVIIK | 0.923 |
| SEEEKHVIKMAEILLKSVLTGDWDKIKKMLDPNVKFHFHAENRHEEDHGMERVMDWMIKVRERFDVLEIEVTNSDVYGDKAVVDGRLINIIGDKRIETRVIIIIVVVDGRIHSIYFVIK | 2.54 |
| SEEEKHVTSMMELWIHYIITGDEEFFLKLADPHTRFEIGDYENHGRDAVKWHRDHLGLDNVHSRIHIKELRAVGDKVHSHTHLVIHIGDKTIRMDTKVHIVYINGRITSIIVEIS | 1.31 |
| SEEEKHWEDLVEHLHQIWLTGDEDTLRHRLDPNMRMDIDGKELHGRESIIEEIRRLGVDHVETKRKHSQGDKAHFDLIIRIDGKEHKMEIVIVVVNGKLKEVVLRRK | 1.1 |
| SEEEKHWRKVINLLRRWHLTGDEHNLLELFDPNYRLHQGDKEIHGMELYIEIFERELKKVPNLKINFDSKHIEVQGEKARAETELDVNIDGRRIEFETRLYSIKFNGKWFVHSMEVK | 0.553 |
| SEEEKIAEDLAREIEEDWLTGNEEYIMHLADPNVKSHINIDGKRIDTHGMEELTHWLSRYPNVRIEPKRMDVQGEKITLDFELNIGDKRVRVILYHIIINGRIKEIRIIIHHV | 0.995 |
| SEEEKIFEMAIKLMRHTLQTGDESTLHRLLDPHVRVVIGDKTYVGREATEFLLTRIDHIHDVEIHEVELINGRVNMHGIVDGTIGDKRVHVESNWVASKYDGRWHLKSISFH | 1.29 |
| SEEEKILDDILKLFLDDVRTGNEDSLHRLADPHVRQDYNGVELHGMELVVHWLVELRVEDWRHKDSDSAENRVHLNGIVDGNINGKKQRREIILVIRKVDGRWFLEHNIVI | 1.23 |
| SEEEKILDKLMELLSRLVHTGDEKEWADLMDPDTKLHVGDKTYIGMEKVTEFLHEMRVHHLELHDKRVIGDKARVHTNLRGVIDGRDVNLETHMIITKINGKWVIHSVEVR | 1.02 |
| SEEEKILEDALRLLIEVDETGNWKLLQEMIDPNVLVDINGRKYHGREQWIRLLHEFIRDAGVQRIHSDIEHIEIQGEKIIMHGMLDINGQRRRTEVIAHKYDGRWFVEEIRIR | 2.11 |
| SEEEKILKEIAHLLIRSLITGDWKILRDLMDPHTKIHILQGDKVHNFHGWKAMTETLKQKLDRIDHVNFELRHMEVFDGRVHIEGVLHLNFDGQERFTEVRIIVVVIDGKLKEFELRIH | 2.16 |
| SEEEKIMEELLRRIVNALQTGDEDFWSHLADPDTRFVLIQGEWSDEVHGRENALKFMEELKKRVPGMRIRVKDSRVQGEKLHVDGEIIYNGRSFDVEIRLRVVDGRIHEFQIIIR | 2.06 |
| SEEEKIVDERIKILLESWDTGDWDSFIKMLDPNALSIVGEFVMHGRETVVDALDKLLKKLGVKMETHDTEHFEIYGNKARLETTIHLRVGDFHFKRRTRVHMEKVDGQWFITIYESG | 1.31 |
| SEEEKKDHRQWERTFKAFLTGDEDTVHNLADPHVKTEVGDKEYHGRENFSKLISDLGVDHLNLKEIDTVNGRIHLLSEVRFNGQITKFIIIILKVNGQWHVESMEFH | 0.441 |
| SEEEKKLNHWLELWLRSVVTGDEEHLERLADPHVRNHVGDFESHGREEVLKLMEMLKRTLGAKHIRIEIHHVDVQGDKVRMDTRIIIDAENHHLTLKSRMHTRKIDGRWYLHSLEID | 1.06 |
| SEEEKKSKDALRFLEEVWKTGDWDDFRKMIDPHVRIEVNGRTYHGMEDAEKFARDLLKRVKNMKVSIRHIETQGDKMIVHGELNIDGVHSEIQIFTDKIDGRWLLKEVNFI | 0.498 |
| SEEEKLAHEYVRHIIELLETGDEQNVQDLMDPNARSVMIIDGREIYTHGRDAFSHLLKLMGFDHSRLKDIKIYDGRVHSHIEVSVNGREVEVHLIVRKVDGRWVLQETRFHLH | 1.19 |
| SEEEKLFKIMMKLLLEQTETGDEHFLKHQFDPHARLEIGEFDLHGWEFMDEHVRHWRYRDMELRRLEFQGNKIETRGLIIGEYNGRRLEISVRMIVLKIDGKWIIKHVHIH | 1.42 |
| SEEEKLLEELAKMFIELWLTGNEEHLMHLADPNVRFRQGDKRSHGRENLKRLLHELHEEIRIHDIRMKDVRFVNGRSIFDGHLIVQVNGVEIRLDAELTIISVNGKIKEIEIRHR | 1.08 |
| SEEEKLLTDWLRELEEVTRTGDEESIMRMVDPNDKMDVGDKHRHGMHAQEVWIEVFRRQFGIDNFEVRLIINHRRIVDGQAHVDGELQLIYNGRTTSLRIELIIDKFDGRWLISSIRYN | 1.19 |
| SEEEKLQREMSKRWIEEVFTGNEEVFEQLADPNTIIDINGQHLHGMETFSKWSREHIKKLGWTQFDIKMRDSKVIGNKAKLDLELHVNGKVVKVEVNLEVIDGRIKKIEERHH | -0.143 |
| SEEEKLRKSLVELILHALHTGDWERLTRLLDPHVRWDQGDKVFHGREDFKRAWTELGVDHFQLRHIEMQGDKLHIKGEMHVNGRTIHVDLDIEIINGRIEHHRVDTK | 1.35 |
